± gives the standard error. Fewer inactive variants are shown than the library holds.
B1: glmS ribozyme (parent)
chain: AUAAAAGCGCCAGAACUACAGAAAUGUAGUUGACGAGGAGGAGGUUUAUCGAAUUUUCGGCGGAUGCCUCCAAA

Legend:
Settings in all cases: with glucosamine-6-phosphate
glucosamine-6-phosphate [1] = variants of: B1; test: self-cleavage kobs at 160 uM GlcN6P; higher = faster cleavage; RNA array
Outline: (§1)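 On sequenced MiSeq chips, barcoded ribozyme variants were made in situ by E. coli RNA polymerase and followed at 37 °C through a hybridised Cy3 probe. Glucosamine-6-phosphate was flowed in at 40 μM to 10 mM in HEPES/KCl/Mg(OAc)2 buffer. Exponential fits to normalised per-tile medians gave kobs, and weighted Michaelis–Menten fits gave kcat and KM.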

glucosamine-6-phosphate [2] = variants of: B1; test: self-cleavage kobs at 640 uM GlcN6P; higher = faster cleavage; RNA array
Outline: as §1

glucosamine-6-phosphate [3] = variants of: B1; test: self-cleavage kobs at 2500 uM GlcN6P; higher = faster cleavage; RNA array
Outline: as §1

glucosamine-6-phosphate [4] = variants of: B1; test: self-cleavage kobs at 10000 uM GlcN6P; higher = faster cleavage; RNA array
Outline: as §1

Variant	self-cleavage kobs at 160 uM GlcN6P (glucosamine-6-phosphate [1]) [s⁻¹]	self-cleavage kobs at 640 uM GlcN6P (glucosamine-6-phosphate [2]) [s⁻¹]	self-cleavage kobs at 2500 uM GlcN6P (glucosamine-6-phosphate [3]) [s⁻¹]	self-cleavage kobs at 10000 uM GlcN6P (glucosamine-6-phosphate [4]) [s⁻¹]
A48U G59C	< 1e-05	< 1e-05	< 1e-05	< 1e-05
G40C C50U U57A C58G U65A	< 1e-05		< 1e-05	
A36C G41C	< 1e-05	< 1e-05	< 1e-05	< 1e-05
G7A G59C	< 1e-05	< 1e-05		
G41A G51U	< 1e-05	< 1e-05	< 1e-05	< 1e-05
G40C U69A	< 1e-05		< 1e-05	
G7A G41U	< 1e-05	< 1e-05		< 1e-05
A42C G62C G63U U69A	< 1e-05		< 1e-05	
G9A A12U U31A A52G G59C	< 1e-05		< 1e-05	
G7U G37U	< 1e-05			< 1e-05
G13C A14C G51A G66U	< 1e-05		< 1e-05	
G38A A53C	< 1e-05			
C8A U30A G37U C58A	< 1e-05			
G9C G37A U46A A52U G60A C61A	< 1e-05		< 1e-05	
G35A G62C	< 1e-05	< 1e-05	< 1e-05	
G35A G62U	< 1e-05		< 1e-05	< 1e-05
C10U C16A U65A	< 1e-05	< 1e-05	< 1e-05	< 1e-05
C10U A53C	< 1e-05	< 1e-05		
C11A A42C	< 1e-05	< 1e-05	< 1e-05	
U55C C61U G63U	< 1e-05	< 1e-05	< 1e-05	
G7A A12C	< 1e-05			
G13C C34A G35U	< 1e-05	< 1e-05	< 1e-05	
G7U C8G G51C	< 1e-05	< 1e-05	< 1e-05	
G13C C34U	< 1e-05	< 1e-05	< 1e-05	< 1e-05
A6C A12U G41A	< 1e-05	< 1e-05	< 1e-05	
C8U G35C C70G	< 1e-05			

Variant	self-cleavage kobs at 160 uM GlcN6P (glucosamine-6-phosphate [1]) [s⁻¹]	self-cleavage kobs at 640 uM GlcN6P (glucosamine-6-phosphate [2]) [s⁻¹]	self-cleavage kobs at 2500 uM GlcN6P (glucosamine-6-phosphate [3]) [s⁻¹]	self-cleavage kobs at 10000 uM GlcN6P (glucosamine-6-phosphate [4]) [s⁻¹]
G35A U55C C70A	< 1e-05	< 1e-05		
U30A U54A C67U C68A	3.56e-05 ± 1.7e-05		4.46e-05 ± 2.1e-05	
A12U A15G C16G U30C A33U A48G G66A	< 1e-05	< 1e-05		
G35A U49A C67G C68G	0.000246 ± 7.8e-05	9.7e-05 ± 2.3e-05	0.000118 ± 3.7e-05	
G7C U45A	< 1e-05	< 1e-05	< 1e-05	< 1e-05
A6U G32U	< 1e-05	< 1e-05	< 1e-05	
A33C A36G	< 1e-05	< 1e-05	< 1e-05	< 1e-05
G40A U45C	4.64e-05 ± 1.6e-05		0.000553 ± 0.00016	
G29U A39G G59U C67U	< 1e-05	< 1e-05		
A12G U46C A48U	< 1e-05			
A36C G41A G66U	< 1e-05		< 1e-05	
A14C A48U G60U	< 1e-05	< 1e-05		
C10G G29A G62U C71U	< 1e-05	< 1e-05	< 1e-05	
G43A U56A U57A C61U	< 1e-05			
U30G C71G	6.06e-05 ± 2.9e-05	9.91e-05 ± 2.4e-05	0.000179 ± 4.3e-05	0.000543 ± 0.00012
G9U A52C	< 1e-05		< 1e-05	
G41U G51A	< 1e-05	< 1e-05	< 1e-05	< 1e-05
G13C A36G G63C	< 1e-05	< 1e-05		
A6G A15U A52U	< 1e-05	< 1e-05	< 1e-05	
C8A G9A G37U A39G	< 1e-05			
G41A G60C	< 1e-05	< 1e-05		< 1e-05
C11U A12C G43C	< 1e-05		< 1e-05	
G35A G41U A48G	< 1e-05		< 1e-05	
C11A G38A U45A	< 1e-05			
A12U G51A U55C	< 1e-05			
